Experimental data published in patent US20210205413A1 (Nektar Therapeutics, priority 2018, published 2021).
“Also recorded” adds a separate entry of the source.

How the values were obtained:
[1] = system: Balb/c mice (KLH DTH model); test: Mouse KLH delayed-type hypersensitivity (DTH) efficacy model, ear swelling; assay type: in vivo
Protocol: Mice are sensitized subcutaneously in their dorsal area with a 100 μl subcutaneous injection containing 100 μg keyhole limpit hemocyanin (KLH) in an emulsion containing Complete Freund's Adjuvant (CFA) and Incomplete Freund's Adjuvant, at a ratio of 1:1:1 respectively. Five days later, baseline ear thickness is measured prior to challenge with 10 μg of KLH intradermally in the left ear, with the right ear remaining untreated. Ear thickness measurements are measured with calipers at 24, 48, 72 and 96 hours post KLH challenge in all groups. […] A positive control consisting of cyclosporin (10 mg/kg, single dose) was administered on day 0.

[2] = Phase I ascending multiple-dose study in patients with SLE: pharmacokinetics; assay type: in vivo, human; conditions: Multi-Dose Study
Protocol: The effects on SLE disease activity are also evaluated. Twelve SLE patients with minimal to moderate disease activity are randomized to each of four dose cohorts, nine of whom received multiple 1.0 mg/mL aqueous solution sub-cutaneous doses of RUR-IL-2-20 kD, while three received placebo. […] In Cohort 1, a starting dose of 3.0 μg/kg is administered three times at two-week intervals (Days 1, 15, and 29). This starting dose is based on the favorable safety and PD profile of single sub-cutaneous doses of RUR20kD-IL-2 previously determined in the study described above. The subsequent dose levels in Cohorts 2, 3, and 4, respectively, were up to two-fold that of the previous dose cohort. Patients in Cohorts 1-3 received three doses of study drug at two-week intervals over a total of four weeks. Doses to be evaluated over the course of the study range from 3.0 μg/kg to 24 μg/kg. […] After receiving the final dose of RUR20kD-IL-2 or placebo, patients are followed for an additional fifty days to evaluate safety, PK, PD, and preliminary efficacy. Eight of twelve subjects in each cohort are evaluated two weeks after the third dose of the final patient by the Safety Review Committee for possible safety issues. In addition, all patients in Cohort 4 are evaluated by the Safety Review Committee twice: (1) two weeks after the first eight subjects receive their third dose and (2) two weeks after all subjects receive all doses of study drug. Immunologic changes, including Tregs, CD4^+-T cells, CD8^+-T cells, and NK cell responses, cytokine levels, and available PK data, in addition to safety findings, are used to determine dose levels. The primary objective of the study is to evaluate the safety and tolerability of RUR20kD-IL-2 administered as multiple ascending subcutaneous doses to patients with SLE. […] Results depicting preliminary PK data from the ascending multi-dose study are compared with data from the single subcutaneous study in the below Table 15: […]

Tregs = test: Single-dose PK/PD study in mice: Tregs in blood and spleen by flow cytometry; assay type: in vivo, C57BL/6 mice
Description: (§1) Following administration, blood and spleen samples are collected at days 1-7 and day 10 post administration. More particularly, at each time point, blood and spleen samples are collected; samples are pooled and assessed for pharmacodynamic analysis of drug action on lymphocyte cell populations by flow cytometry (see e.g. Example 5), expressed as a fold change relative to vehicle control. In addition to changes in cell numbers, functional markers and markers of activity are quantified. Finally, plasma drug concentration is also assessed.

[3] = Solution phase stability by HPLC; assay type: physicochemical; conditions: 5° C.
Protocol: The mobile phase is 0.2M ammonium acetate (pH 5.5) at a volume ratio of 80:20 with acetonitrile. The diluent/formulation buffer contained 10 mM sodium acetate, 200 mM sodium chloride, 2% sucrose, at a pH of 5.0. […] Samples are stable up to 5 days at 5° C. in solution.
(refrigerated), and −20° C. at 1, 3, 5, and 7-day time points by RP-HPLC as previously described.
Differences between the RUR20kD-IL-2 composition solutions are evaluated against a control, freshly prepared RUR20kD-IL-2 composition sample solution.

[4] = system: Balb/c mice (KLH DTH model); test: Antigen dependent, T cell-mediated DTH model with KLH rechallenge; assay type: in vivo
Protocol: (§2) To develop the DTH model, Balb/c mice are sensitized with a subcutaneous administration of a model antigen keyhole limpet hemocyanin (KLH) emulsified in complete and incomplete Freund's adjuvant. […] Inflamed ears are subjected to immunohistochemistry (IHC) to quantify percent of FoxP3+ Treg cells post KLH challenge. The specificity of response is assessed after an additional 3-4 weeks with no treatment by either KLH rechallenge or conducting sensitization and challenge with an unrelated antigen ovalbumin (OVA). […] Post ten days of 2nd sensitization, mice are challenged with OVA eight times orally, every alternative day. […] Severity of allergic response is assessed by clinical scoring within 30-45 min of post 8th challenge. Further, serum mast cell protease 1 (MCPT 1) and OVA specific IgE titers are quantified. The percent Treg is determined by flow cytometry in peripheral blood and in spleen.

[5] = system: Balb/C mice (OVA food allergy model); test: Food allergy model (OVA sensitization and oral challenge); assay type: in vivo
Protocol: as §2

CD4 T cells, CD8 T cells = test: Single-dose PK/PD study in mice: CD4 and CD8 T cells in blood; assay type: in vivo, C57BL/6 mice; conditions: single SC 0.3 mg/kg
Description: as §1

[6] = SC q3d, AUC0-96h of change in ear thickness

Substance: (1,3-bis(methoxypoly(ethylene glycol)10kDcarbamoyl)-2-propanoxy)-4-butanamide)interleukin-2) [RUR20kD-IL-2]
- ear swelling relative to vehicle control ([1]; SC 0.003-0.3 mg/kg every three days): significant dose-dependent decreases in ear swelling
- dose achieving maximal effect [1, 6]: 0.3 mg/kg
- minimally effective dose [1, 6]: 0.01 mg/kg
- AUC0-14 d ([2]; 3.0 μg/kg, Median (n = 9)): 185 ng·days/mL
- Cmax ([2]; 3.0 μg/kg, Median (n = 9)): 18 ng/mL
- tmax ([2]; 3.0 μg/kg, Median (n = 9)): 140 h
- AUC0-14 d ([2]; 3.0 μg/kg, max): 291 ng·days/mL
- Cmax ([2]; 3.0 μg/kg, max): 26 ng/mL
- tmax ([2]; 3.0 μg/kg, max): 336 h
- AUC0-14 d ([2]; 3.0 μg/kg, min): 113 ng·days/mL
- Cmax ([2]; 3.0 μg/kg, min): 15 ng/mL
- tmax ([2]; 3.0 μg/kg, min): 48 h
- Cmax ([2]; 6.0 μg/kg, Median (n = 7)): 14 ng/mL
- tmax ([2]; 6.0 μg/kg, Median (n = 7)): 140 h
- AUC0-14 d ([2]; 6.0 μg/kg, max): 206 ng·days/mL
- Cmax ([2]; 6.0 μg/kg, max): 22 ng/mL
- tmax ([2]; 6.0 μg/kg, max): 336 h
- AUC0-14 d ([2]; 6.0 μg/kg, min): 43 ng·days/mL
- Cmax ([2]; 6.0 μg/kg, min): 5 ng/mL
- tmax ([2]; 6.0 μg/kg, min): 96 h
- time of peak increase in CD4+ Treg cell numbers (Tregs; blood and spleen, single SC dose 0.03-0.3 mg/kg): four days following administration; also recorded: four days after administration
- duration of sustained Treg mobilization (Tregs; blood and spleen, single administration): 7 to 10 days
- time until Treg levels return to baseline (Tregs; single SC 0.3 mg/kg): 7 to 10 days
- day ICOS expression returns to baseline (Tregs; single SC dose): ≤ 7 days
- day of peak ICOS expression on Treg (Tregs; single SC dose): 3 days
- percentage of proliferating (Ki67) Treg, duration (Tregs; single SC dose): sustained through day 6
- time of maximum of Treg activation markers (CD25 and Foxp3 MFI) (Tregs; single SC dose, highest dose 0.3 mg/kg, 0.3 mg/kg): in the first two days following administration; also recorded: within the first two days following administration
- time samples are stable in solution ([3]; 1.0 mg/mL in formulation buffer): up to 5 days
- relative difference of mono-PEG, tetra-PEG and penta-PEG species ([3]; 1.0 mg/mL solution pH 5, RT, −20° C. up to 7 days, RP-HPLC): up to 8%
- inflammatory response to KLH rechallenge ([4]; SC 0.003-0.3 mg/kg q3d, day 0 through day 8): suppressed the inflammatory response to KLH rechallenge in a dose dependent manner
- FoxP3+ Treg cells in inflamed ears (IHC) ([4]; post KLH challenge): significant infiltration of FoxP3+ Treg cells
- durability and specificity of suppressive effect on inflammation ([4]; re-challenge post 3-4 weeks without further administration, same and unrelated antigen (OVA)): durable and antigen-specific
- Tregs (flow cytometry, peripheral blood and spleen) ([5]; SC 0.1 mg/kg q3d×3): significant increase in Tregs
- levels of MCPT1 and anti-OVA specific IgE titers ([5]; SC 0.1 mg/kg q3d×3): significant decrease in levels of MCPT1 and anti-OVA specific IgE titers
- anaphylaxis symptoms (clinical scores) ([5]; SC 0.1 mg/kg q3d×3, repeated oral OVA): efficacious in decreasing the high degree of anaphylaxis symptoms
- changes to CD4 T cells (CD4 T cells, CD8 T cells): modest
- changes to CD8 T cells (CD4 T cells, CD8 T cells): slight decreases
